Test [1] addresses T1, peptide A8 (… with Ala at position 6, F4 of the epitope) (human).
T1 construct: The label A8 and position 6 follow from 'Peptides A2-A13 contained a single alanine substitution at each amino acid position from 12 to 1 respectively'
T1 peptide: Biotin-SGSGVREEYAPPKVLC
Nature of the test: peptide ELISA, alanine-scan peptides. How it is done:
(§1) A 384 well streptavidin-coated plate (Nunc) was blocked with 20 μl of blocking buffer (1% w/v BSA in PBS) per well. The plate was washed 4 times with PBS/Tween20 buffer (0.1% v/v Tween 20 in PBS). 20 μl of diluted peptide solution was transferred into a well and the plate incubated for 1 hour at room temperature. After washing the plate 4 times (as above) 20 μl antibody (0.5, 1, 1.25, 2.5 or 5 μg/ml) was added to the well and the plate was incubated for 1 hour at 20° C. The plate was washed 4 times as above then 20 μlHRP-conjugated anti-mouse IgG (1:5000 dilution in PBS/Tween 20) was added to each well. After a 1 hour incubation at room temperature the plate was washed 3 times (as above) then twice with PBS to remove traces of Tween. The presence of peroxidase was detected by adding 20 μl of freshly prepared TMB Substrate reagent (BD Opt EIA) to each well and incubating at room temperature for 20 min. Finally the plate was read at 650 nm/450 nm.
(§2) Peptide A1 had no A1a substitution and peptide A14 was a scrambled version of peptide A1. Peptides A2-A13 contained a single alanine substitution at each amino acid position from 12 to 1 respectively. Binding of antibodies to the peptides coated on ELISA plates was carried out as described above.
For orientation: In an ELISA, binding on a coated surface is turned into a signal by an enzyme label.

Test [2] addresses T2, peptide A9 (… with Ala at position 5, Y3 of the epitope) (human).
T2 construct: The label A9 and position 5 follow from 'Peptides A2-A13 contained a single alanine substitution at each amino acid position from 12 to 1 respectively'
T2 peptide: Biotin-SGSGVREEAFPPKVLC
Nature of the test: peptide ELISA, alanine-scan peptides. How it is done:
as §1, §2

Test [3] has as its target T3, peptide 2 (12 mer from the 2nd extracellular loop of human C5aR) (human).
T3 construct: worked out from 22 12 mers offset by one over 173-205; also called peptide no
T3 peptide: Biotin-SGSGYRVVREEYFPPK
Nature of the test: peptide ELISA, biotin peptide on streptavidin plate.

In test [4] the target is T4, peptide 3 (12 mer from the 2nd extracellular loop of human C5aR) (human).
T4 construct: worked out from 22 12 mers offset by one over 173-205; also called peptide no
T4 peptide: Biotin-SGSGRVVREEYFPPKV
The description is as above.

Test [5] has as its target T5, peptide 4 (12 mer from the 2nd extracellular loop of human C5aR) (human).
T5 construct: worked out from 22 12 mers offset by one over 173-205; also called peptide no
T5 peptide: Biotin-SGSGVVREEYFPPKVL
Described as above.

The target of test [6] is T6, peptide 5 (12 mer from the 2nd extracellular loop of human C5aR) (human).
T6 construct: worked out from 22 12 mers offset by one over 173-205; also called peptide no
T6 peptide: Biotin-SGSGVREEYFPPKVLC
The test is described as above.

For test [7], the target named is T7, peptide 6 (12 mer from the 2nd extracellular loop of human C5aR) (human).
T7 construct: worked out from 22 12 mers offset by one over 173-205; also called peptide no
T7 peptide: Biotin-SGSGREEYFPPKVLCG
Described as above.

Test [8] concerns the target T8, peptide 7 (12 mer from the 2nd extracellular loop of human C5aR) (human).
T8 construct: worked out from 22 12 mers offset by one over 173-205; also called peptide no
T8 peptide: Biotin-SGSGEEYFPPKVLCGV
The test is described as above.

Test [9] deals with T9, human C5a receptor (human, UniProt P21730 1-350).
T9 construct: On human neutrophils, L1.2/hC5aR transfectants or neutrophils of hC5aR knock-in mice; also called hC5aR; C5aR1
T9 chain: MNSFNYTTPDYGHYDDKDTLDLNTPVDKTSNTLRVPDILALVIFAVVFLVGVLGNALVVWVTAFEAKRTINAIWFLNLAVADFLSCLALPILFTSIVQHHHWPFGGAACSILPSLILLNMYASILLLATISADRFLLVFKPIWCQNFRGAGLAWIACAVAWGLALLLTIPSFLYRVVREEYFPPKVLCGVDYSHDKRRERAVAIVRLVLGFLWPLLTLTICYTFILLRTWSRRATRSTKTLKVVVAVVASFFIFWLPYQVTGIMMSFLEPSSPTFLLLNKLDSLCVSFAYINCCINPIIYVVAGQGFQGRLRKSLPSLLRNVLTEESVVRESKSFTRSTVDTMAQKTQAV
Nature of the test: saturation binding to human neutrophils at 4 C, flow cytometry. How it is done:
Human neutrophils, isolated as described above, were resuspended in dPBS and 1×10⁵ cells (in 25 μl) were dispensed into wells of a 96-well plate. An equal volume (25 μl) of 2× antibody (diluted in PBS) was added to each well. The final antibody concentration using 2-fold serial dilution ranged from 40 to 0 ug/ml (using unlabelled hAb-Q, hAb-J and 7F3). Cells and antibody were incubated for 20 min times at 4° C. After incubation, 100 μl PBS+1% BCS was added to each well and the plate centrifuged at 2,000 rpm for 3 min. […] The cells were washed once as above and resuspended in PBS+1% FCS for analysis by flow cytometry. FSC v SSC scatter was used to identify neutrophils, with the Median Fluorescence Intensity (MFI) determined for each sample. EC50 values were determined by fitting data (MFI—background vs log₁₀[antibody concentration]) to the sigmoidal dose-response (variable slope) i.e. 4-parameter logistic equation using GraphPad Prism (v4.0) software. Bₘₐₓ and KD were determined by fitting data to the one-site binding hyperbola equation.
A general note: Flow cytometry measures light scatter and fluorescence of single cells or particles in a stream.

The target in test [10] is T9, human C5a receptor. Nature of the test: cell-based or functional assay.

The values below come from patent US20110190477A1 (G2 INFLAMMATION, published 2011).

Several values for one entry are separate records, joined by “and”; a condition that tells them apart may be missing. Equal values may be shown once. No end group written: not given here. *: point of attachment. Biotin = O=C1N[C@H]2[C@H](CS[C@H]2CCCCC(=O)*)N1

B1: humanized anti-C5aR antibody hAb-J (antibody, human IgG4 S228P, kappa)
light: DVVMTQSPLSLPVTLGEPASISCRSSQSLVHSNGNTYLHWYLQKPGQSPQLLIYKVSNRFSGVPDRFSGSGSGTDFTLKISRVEAEDVGVYFCSQSTLVPLTFGQGTKLEIKTVAAPSVFIFPPSDEQLKSGTASVVCLLNNFYPREAKVQWKVDNALQSGNSQESVTEQDSKDSTYSLSSTLTLSKADYEKHKVYACEVTHQGLSSPVTKSFNRGEC
heavy: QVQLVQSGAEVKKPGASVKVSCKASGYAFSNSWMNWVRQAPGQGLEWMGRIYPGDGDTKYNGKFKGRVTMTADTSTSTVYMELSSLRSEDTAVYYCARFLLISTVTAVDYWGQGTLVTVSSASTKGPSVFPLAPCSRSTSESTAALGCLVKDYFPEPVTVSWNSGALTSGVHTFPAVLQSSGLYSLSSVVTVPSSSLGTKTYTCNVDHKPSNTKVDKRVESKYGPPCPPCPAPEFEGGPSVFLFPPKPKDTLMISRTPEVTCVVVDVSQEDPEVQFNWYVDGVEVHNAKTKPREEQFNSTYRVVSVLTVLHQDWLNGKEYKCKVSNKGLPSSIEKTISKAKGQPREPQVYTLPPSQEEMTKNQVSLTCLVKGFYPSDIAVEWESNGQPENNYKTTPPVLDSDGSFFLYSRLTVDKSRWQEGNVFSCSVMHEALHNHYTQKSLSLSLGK
notes: also called antibody J
As for B1, the binding result in [1] and in test [2] was “no binding” each time.

B2: mouse anti-C5aR monoclonal antibody 7F3 (antibody, V domains shown)
VH: QVQLQQSGPELVKPGASVKISCKASGYAFSNSWMNWVKQRPGKGLEWIGRIYPGDGDTKYNGKFKGKATLTADKSSSTAYMQLSSLTSEDSAVYFCARFLLISTVTAVDYWGQGTTLTVSS
VL: DVVMTQSPLSLPVSLGNQASISCRSSQSLVHSNGNTYLHWYLQKPGQSPKLLIYKVSNRFSGVPDRFSGSGSGTDFSLKISRVEAEDLGVYFCSQSTLVPLTFGAGTKLELK
notes: Mouse monoclonal from hybridoma ECACC 00110609; also called m7F3; mouse 7F3
What is called EC50 is the concentration needed to bring the measured effect to its halfway point. Low readings indicate a more potent agent, high ones a less potent agent. What is called Kd is the concentration at which binding is half-saturated. Read a low Kd as a tighter complex. In the case of B2, the binding result in test [3], in test [4], in [5], in [6], in [7] and in [8] was “binds” throughout. The molecule also had an EC50 with human C5a receptor [9] of 8 to 10 nM. In addition, the Kd in the test with human C5a receptor [9] lay in the range of 8 to 10 nM.

B3: humanized anti-C5aR antibody hAb-Q (antibody, human IgG4 S228P, kappa)
light: DVVMTQSPLSLPVTLGEPASISCRSSQSLVHSNGNTYLHWYLQKPGQSPQLLIYKVSNRFSGVPDRFSGSGSGTDFTLKISRVEAEDVGVYFCSQSTLVPLTFGQGTKLEIKRTVAAPSVFIFPPSDEQLKSGTASVVCLLNNFYPREAKVQWKVDNALQSGNSQESVTEQDSKDSTYSLSSTLTLSKADYEKHKVYACEVTHQGLSSPVTKSFNRGEC
heavy: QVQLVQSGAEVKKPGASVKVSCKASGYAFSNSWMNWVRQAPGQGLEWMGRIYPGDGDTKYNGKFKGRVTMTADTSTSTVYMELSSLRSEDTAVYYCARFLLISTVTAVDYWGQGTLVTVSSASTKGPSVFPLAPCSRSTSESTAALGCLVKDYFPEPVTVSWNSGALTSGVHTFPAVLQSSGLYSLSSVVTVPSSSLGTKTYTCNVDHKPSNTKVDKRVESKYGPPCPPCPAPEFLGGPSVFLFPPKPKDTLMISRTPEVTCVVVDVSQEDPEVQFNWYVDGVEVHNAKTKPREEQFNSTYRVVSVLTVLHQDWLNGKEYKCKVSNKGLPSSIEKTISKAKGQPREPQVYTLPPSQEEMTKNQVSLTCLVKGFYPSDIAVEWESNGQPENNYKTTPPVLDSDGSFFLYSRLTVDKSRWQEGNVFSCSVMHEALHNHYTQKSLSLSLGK
notes: IgG4 with the Ser228Pro mutation; also called antibody Q; anti-C5aR ab
Turning to B3, in the test with human C5a receptor [10], the “Ab conc. tested but not effective at blocking Ca2+-flux (human neutrophils, 1 nM C5a)” value amounted to 0.5 µg/mL. Besides, the binding result in [1] is listed as “no binding”; in test [2] it was “no binding”; in test [3], “binds”; in test [4], “binds”; in test [5] it was “binds”; in test [6], “binds”. The binding result in [7] and in [8] was “binds” throughout. Also, the EC50 in the test with human C5a receptor [9] was 20 nM to 25 nM (2×) and ~3 µg/mL. In the test with human C5a receptor [9], the Kd was 20 nM to 25 nM (2×) and ~3 µg/mL.
